Measurements taken from patent US11666671B2, “Spatial mapping of kidney functions” (Northwestern University, priority 2018, dated 2023).
Like-named read-outs stand apart in the source and are kept apart here.

Legend:
[1] = Conventional renal scintigraphy (renogram) with radionuclide-bound tracers (FIG. 1)
Excerpt: FIG. 1 is a low-resolution renogram of a patient using conventional radionuclide-bound tracer ^99mTc DTPA with renal scintigraphy.

FcRn = experiment: Binding of Fc to FcRn on renal tubular epithelial cells; format: in vivo; conditions: surface of renal tubular epithelial cells
[2] = Renal histology (immunofluorescence) and renal tubular handling of the carriers (FIGS. 3, 4); conditions: ^99mTc/HYNIC-labelled carriers
[3] = mouse, in vivo
[4] = not given; remark: listed apart in the source
[5] = not given; remark: listed apart in the source
[6] = steady state, from 45 min onward, FIG. 8A

O=C([O-])CN(CCN(CC(=O)[O-])CC(=O)[O-])CCN(CC(=O)[O-])CC(=O)[O-].[99Tc+4] [^99mTc DTPA, ^99mTc Diethylenetriamine-Pentaacetic Acid]
time to wash out of the system [1]: ≤ 20 min

Fc: imaging agent using ^99mTc as detection moiety, HYNIC as chelation moiety, and Fc alone as carrier moiety [reference compound]
FcRn binding (FcRn): binds the FcRn on the surface of renal tubular epithelial cells
renal tubular handling / fate of the carrier [2]: reenters blood circulation via peritubular capillaries

PBT-Fc carrier moiety: N-terminal His6 tag, PBT from human VEGFA (amino acids 131-163), and Fc of human IgG1, expressed in E. coli
distribution of the probe in renal histology (immunofluorescence) [3]: mainly in the tubular basement membrane

^99mTc/HYNIC/PBT-Fc: ^99mTc as the detection moiety, HYNIC as the chelation moiety, and PBT-Fc as the carrier moiety
renal fate / urinary excretion of the agent (after administration to test subjects): fixed (e.g., permanently) at the basement membrane of the downstream renal tubules without being further excreted into urine
time after which radio signals accumulated in the kidney reach the plateau (glomerular filtration phase, tail vein injection): 10 to 20 min
intrarenal localization (section view) ([4]; FIG. 8B): localization of PBT-Fc to the kidney cortex
^99mTc signal in liver and bladder [4, 6]: low levels of signal accumulation in the liver and the bladder
^99mTc signal in the kidney [4, 6]: concentrated in the kidney
renal tubular handling / fate of the carrier [2]: “trapped” in the tubular basement membrane (TBM)
time the agent stayed in the subject's system for steady state imaging ([5]; FIG. 7): 60 min
renal fate / urinary excretion of the agent ([5]; FIG. 7, steady state): concentrated in the kidney without being excreted into urine
kidney retention compared with Fc-alone and Duramycin agents ([5]; FIGS. 6 and 7): accumulate and remain the kidneys of the subjects for much longer than that of the Fc-alone and Duramycin agents
